Measured values: the nanobody polyreactivity screen of Harvey et al. (2022)

Experiment: yeast display, Sf9 membrane polyspecificity reagent, FACS + sequencing; frameworks hold sequencing errors
Summary of the method: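 Sorting gates, low and high (top ~1%), were placed on anti-HA fluorescence to track expression and on streptavidin fluorescence to track reagent binding. A clone's polyreactivity label is taken from the gate it came out of. The reagent was 10% biotinylated, detergent-solubilized Sf9 membrane, applied for 1 hour at 4 °C to galactose-induced yeast display cells.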

Row | Sequence | polyreactivity (PSR sort gate)
1 | QVQLVESGGGLVQAGGSLRLSCAASGSTFVYYAMGWYRQAPGKERELVAAISRSGGNTYYADSVKGRFTISRDNAKNTVYLQMNSLKPEDTAVYYCAARSYGVQYYYWGQGTQVTVSS | high polyreactivity
2 | QVQLVESCGGLVQAGGSLRLSCAASGSIFPYYTMGWYRQAPWKERELVAAISGSGGSTYYADSVKGRFTISRDNAKNTVYLQMNSLKAEYTAVYYCAAYRRTWFDYWGQGTQVTVSS | high polyreactivity
3 | QVQLVESGGGLVQAGGSLRLSCAASGLTLAWYAMGGYRQAPGKERELVAAISWSGDSTYYADSVKGRFTISRDNAKNTVYLQMNSLKPEDTAVYYCATRVYGGYGYWGQGTQVTVSS | high polyreactivity
4 | QVQLVESGGGLVQAGGSLRLSCAASGITFDNYAMGWYRQAPGKEWELVAAISSDDNTTYADSVKGRFTISRDNAKNTVYLQMNSLKPEDTAVYYCAADSRIYGYWEYDYWGQGTQVTVST | low polyreactivity
5 | QVQLVESGGGLVQAGGSLRLSCAASGRIFWYYAMGWYRQAPGKDWELVATITYSGVRTYYADSVKGRFTISRDNAKNSVYLQMNSLKPEDTAVYYCAAVPGASVYGYYWKFGYWGQGTQLTVSS | high polyreactivity
6 | QVQLVESGGGLVQAGGSLRLSCAASGGTFTAYAMGWYIQAPGKERELVAAISASGDSTYYADSVKGRFTISRDIAKNTVYLQMNSLKPEDTAVYYCNADWYRTGRRGSDYWGQGTQVTVSS | low polyreactivity
7 | QVQLLESGGGLVQAGGRLRLSCAASGSIFLWNAMGWYRQAPGKERELVAAITNIGGRTYYADSVKGRFTISRDNAKNTVYLQMNSLKPEDTAVYYCNVVVKGAWDYYPYDYWGQGTQVTVSS | high polyreactivity
8 | QVHLVESGGGLVQAGGSLRLSCAASGSTFRSYVMGWSRQAPGKERELVAAISRGGTTYYADSVKGRFTISRDNAKNTVYLQMNSLKPEDTPVYYCAATRTTRFYTGSKMNYWGQGTQVTVSS | high polyreactivity
9 | QVQLVESGGGLVQAGGSLRLSCAASGSTFIVNAMGWYRQAPGKERELVAAISRGGSTYYADSVKGRFTISRDNAKNTVYLQMNSLKPEHTAVYYCAARIWRTRRYDYWGQGTQVTVSS | high polyreactivity
10 | QVQLVESGGGLVQAGGSLRLSCAASGFTFSQYAMGWYRQAPGKERELVAAISRSGGSTYYADSVKGRFTISRDNAKNTVYLQMNSLKPEDTAVYYCAARGPVGYGWRYRPWHDYWGQGTQVTVSS | high polyreactivity
11 | QVQLVESGGGLVQAGGSLRLSCAASGIIFRGNAMGWYRQEPGKESEIVAAISLRGSRTYYADSVKGRFTISRDNAKNTVYLQMNSLKPEDSAVYYCNARGGTSPFGSDYWGQGTQVTVSS | high polyreactivity
12 | QVQLVESGGGLVQAGGSLRLSCAASGSIFTWYTMGWYRQAPGKERELVAGIRTGGSTYYADSVKGRFTISRDNAKNTVYLQMNSLKPEDTSVYYCARQRWYRQYYFTSDYWGLGTQVTVSS | high polyreactivity
13 | QVQLVESGGGLVQAGGSLRLSCAASGFILDYYAMGWYRQAPGKERELVAANSYSGGSTYYADSVKGRFTISRDNAKNTVYLQMTSLKAEDTGVYYGNAGVLVLLYAYLPSELEYWGQGTQVTVSS | low polyreactivity
14 | QVQLVESGGGLVQAGGSLRLSCAASGRILWYYTMGWYRQAPGKERELVAAISSGGRTHYADSVKGRFTISRDNAKNTVYLQMNSLKPVDTAVYYCAAKYGWGRFNYDYWGQGTQVTVSS | high polyreactivity
15 | QVQLVESGGGLVQAGGSLRLSCAASGSTFGGYAMGWYRQAPAKERELVAAISTSGGNTYYADSVKGRFTISRDNAKNTVYLQMNRLKPEDTAVYYCARDRVSWGGQDSWGQGTQVSVSS | high polyreactivity
16 | QVQLVESAGGLVQAGGSLRISCAASGSIFYYYAMGWYRQAPGKERELLAAIDSGGSTYYADSVKGRFTISRDNAKNTVYLQMNSLKPEDTAVYYCAADTYWFVYYGYDYWGQGTQVTVSS | low polyreactivity
17 | QVQLVESGGGLVQAGGSLRLSCAASGRTFSRYAMGWYRQAPGKEREFVAAISASGGSTYYADSVKGRFTISRDNAKNTVYLQMNSLKPEDTAVYYCAASGYYRYYQYRYDYWGQGTQVTVSS | high polyreactivity
18 | QVQLVESGGGLVQAGGSLRLSCAASGRTFTRYAMGWYRQPPGKESELVAAISRGGNTNYADSVKGRFTISRDNAKNTVYLQMNSLKPEDTAVYYCARVYGGYSVPSAYGSWGQGTQVTVSS | high polyreactivity
19 | QFQLVESGGGLDQAGGSLRLTCAASGLTIRWYAMGWYRQAPGKERELVAAIRWSGGSTYYADSVKGRFTISRDNAKNTVYLQMNSLKPEDTALYYCAARFLGYQSGTERDYWGQGTQVTVSS | high polyreactivity
20 | QLQLVESGGGLVQAGGSLRLSCAASGFTFRWYVMGWYRQAPCKQRELVASIRSGGSTYYADSVKGRFTISRDNAKNTVYLQMNSLKPEDTAVYYCAARFGRDRYYYWGQGTQVTVSS | high polyreactivity
21 | QVQLVESGGGLVQAGGSLRLSCAASGLIFSTYAMGWYRQAPGKERELVAAITNSGGSTYYADSVKGRFTISRDNAKNTDYLQMNSLKPEDTAVYYCARRRSYRDNYWGQGTQVTVSS | high polyreactivity
22 | QVQLVESGARLVQAGGSLRLSCAASAYTLVGYAMGWYRQEPGKERELVADINFSGGRTYYADSVKGRFTISRDNAKNNVYLQMNSLKPEDTAVYYCNAAGALSWFYYGYDYWGQGTQVTLSS | low polyreactivity

Row | Sequence | polyreactivity (PSR sort gate)
23 | QVQLVESGGGLVQAGGSLRISCAASGLTFRRNAMGGYRQAPGKERELFAAITASGGSTYYADSVTGRFTISRDNAKNTVFLQMNSLKPEETAVYYSAAVNYRWYSRNYDHYYWGQGTQVTVSS | high polyreactivity
24 | QVQLVESGGGLVQAGGSLRLSCAASGIIFRYYALGWYRKAPRKERELVAAINWRGGRTYYADSVKGRFTISRDNAKNTVYLQMNSLKPEDTAVYYCAAYIYYPYRNDYWGQGTQVTVSS | high polyreactivity
25 | QVQLVESGGGLVQAGGSLRLSCAASGRISNNAMGWYRQAPGKERELVAAITYRGSSTYYADSVKGRFTISRDNAKNTFYLQMISLKPEDTAVYYCAAQRSYAYEYWGQGTQVTVSS | high polyreactivity
26 | QVQLVESGGGLVQAGGSLRLSCAASGSIIYTNAMGWYRQAPGKERELVAAITGTTTTNYADSVKGRFTISRDNAKNTVYLQMNSLKPEDPAVYYCNADYDRSRVYYSVELYDYWGQGTQVTVSS | low polyreactivity
27 | QVQLVESGGGLVQAGGSLRLSCAASGRTFGRNAMGWYRQAPGKERELVAAISDRGASTYYADSVKGRFTISRDNAKNTVYLQMNSLKPEDTAVYYCAAVFWVDILPGDYWGQGTQVTVSS | low polyreactivity
28 | QLQLVESGGGLVQAGGSLRLSCAASGRIFKLNAMGWSRQAPGKERELVAAINSGTRTYYADSVKGRFTISRDNAKNTVYLQMNSLKPEDTAVYYCAAEGVWWYSRYDYWGQGTQVTVSS | high polyreactivity
29 | QVQLVESGGGLVQAGGSLRLSCAASGFTFADNAMGGYREAPGKERQFVASITYSTGSTYADSVKGRFTISRDNAKNTVYLQMHSLTPEDTAVYYCAVDNISNWAVENDYWGQGTQVTVSS | low polyreactivity
30 | QVQLVESGGGLVQAGGSLRLSCAASGITFRYYAMGWYRQAPGKERELVAAISSGSSTYYADSVKGRFTISRDNAKNTVYLQMNSLKPEDTAVYYCAARTYTTSRATTVYKRLNYWGQGTQVTVSS | high polyreactivity
31 | QVQLVESGGGLVQAGGSLRLSCAASGRTFPYYVMGWYRQAPGKERELVAAINSGGRTNYADSVKGRFTISRDNAKNTVYLQMNSLKPEETAVYYCTKRGHPARLGYYYWGQGTQVTGSS | low polyreactivity
32 | QVQLVESGGGLVQAGGSLRLSCAASGIIFSGYAMGWYRQAPGKERELVASIRSGSNTYYADSVKGRFRISRDNAKNTVYLQMNSLKPEDTAVYYCAARVVPATFRFIRYPHPYYYWGQGTQVTVSS | low polyreactivity
33 | QVQLVESGGGLVQAGGSLRLSCAASGFIFASYAMGWYRQAPVKERELVAAISSCGGRTYYADSVKGRFTISRDNAKNTVNLQMNSLKPEDTAVYYCAADWRFTYDYWGQGTQVTVSS | high polyreactivity
34 | QVQLVESGGGLVQAGGSLRLSCAASGSILLRNAMGWYRQAPGKERELVAAISRDGGSTYADSVKGRFTISRDNAKNTVYLQMNSLKPEDTAVYYCAKRSYWYDYWGQGTQVTVSS | high polyreactivity
35 | QVQLVESGGGLVQAGGILRLSCAASGFIFVDYVMGWSRQAPGKERELVAAINRNGGRPYYADSVKGRFTISRDNEKNTVYLQMNRLKPEDTAVYYCAAVYRSDRYHWYYYWGQGTQVTVSS | high polyreactivity
36 | QVQLVESGGGLVQAGGSLRLSCAASGSIFAYNVMGWYRQAPGKEREFVAAISSGGRTTYADSVKGPFTISRDNAKNTVYLQMNSLKAEDTAVYYFNAYFLVHYRRLRPYEYWGQGTQVTVSS | low polyreactivity
37 | QVQLVESGGGLVQAGGSLRLSCAASGSTFGEYAMGWYRQAPGKERELVAGITSGGSTNYADSVKGRFTISRDNAKNTVYLQMNSLKPEDTAVYYCNARFYGSVDYWGLGTQVTVSS | low polyreactivity
38 | QVQLVESGGGLVQAGGSLRLSCAASGSIFGGSGMGWYRQAPGKERELVAAITSGSSTYYADSVKGRFTISRDNAKNTVYLQMNSLKPEDTAVYYCAARPYPHSAYEGDYWGRGTQVTVSS | low polyreactivity
39 | QVQLVESGGGLVQAGGSLRLSCAASGRTFPPYGMGWYRQAPGKERELVAAISKSSGSTNYADSVKGRFTISRDNAKNTVYLQMNSLKPEDTAVYYCNVDLYRWSKLAGAYRMDYWGQGTQVTVSS | low polyreactivity
40 | QVQLVESGGGLVQAGGSLRLSCAASGFIFRTYAMAWYRQAPGKERELVAAIRQSAGRTYYADSVKGRFTISRDNAKNTVYLQMISLKPEDTAVYYCAADRSPYRRQYDYWGQGTQVTVSS | high polyreactivity
41 | QVQLVESGGGLVQAGGSLRLSCAASGNIFYGYAMGWYRQAPGKERELVAAISRAGRTYYADSVKGRFTISRDNAKNTVYLQMNSLKPEDTAVYYCAADFYYASYVRYNYWGQGTQVTVSS | low polyreactivity
42 | QVQLVESGGGLVQAGGSLRLSCAASGSIFRPNAMGWYRQAPGKERELVAAITWSGDSTYYADSVKGRFTLSRDNAKNTVYRQMNSLKPVDTAVYYCATDPDYVLYRTAYYEFDYWGQGTHVTVSS | low polyreactivity
43 | QVQLVESGGGLVQAGGSLRLSCAASGRTFADYAMGWNRQAPGKEREFVAAITYSGGSTYYADSVKGRFTISRDNAKNTVYLQMNSLKPEDTAVYYCNARPGSSYWYDAQWGEYGYWGQGTQVTVSS | high polyreactivity
